One block for each binder: values may come before it.
Columns and labels:
[1] = target: T1, recombinant human TIGIT extra cellular domain (ECD) protein (human, UniProt Q495A1 22-138); test: blocking ELISA, PVR as competitor
T1 construct: Purchased protein; it begins with the signal peptide; also called h-TIGIT ECD; human TIGIT ECD
T1 sequence: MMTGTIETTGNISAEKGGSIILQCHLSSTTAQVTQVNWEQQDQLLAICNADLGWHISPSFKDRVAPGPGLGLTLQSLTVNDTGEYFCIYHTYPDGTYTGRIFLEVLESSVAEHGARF

[2] = target: T2, recombinant protein of his-tagged human TIGIT ECD (human, UniProt Q495A1 22-138); test: Octet biolayer interferometry; BsAb loaded on the sensor, his-tagged h-TIGIT ECD at different concentrations (not given), then h-PDL1 ECD
T2 construct: Used in Octet assays; also called h-TIGIT ECD (his-tagged); not shown: his tag
T2 sequence: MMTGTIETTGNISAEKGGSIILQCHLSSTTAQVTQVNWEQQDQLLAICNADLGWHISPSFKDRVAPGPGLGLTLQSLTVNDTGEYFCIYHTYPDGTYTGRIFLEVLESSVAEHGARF
Experimental: The sensors were loaded with BsAbs and then injected with different concentrations of recombinant protein of h-TIGIT ECD (his-tagged). After association of BsAbs with h-TIGIT, the sensors were injected again with different concentrations of recombinant protein of h-PDL1 ECD (his-tagged). […] Y axis represents association/disassociation and Rmax, X axis represents time in second.

[3] = target: T3, human TIGIT stably expressed on cells (Jurkat; 293T) (human, UniProt Q495A1 22-244); test: flow cytometry on h-TIGIT stably transfected Jurkat cells; anti-h-IgG Fc AlexaFluor488 secondary
T3 construct: the expression vector's insert is not described further; also called h-TIGIT; human TIGIT transfected Jurkat cells
T3 sequence: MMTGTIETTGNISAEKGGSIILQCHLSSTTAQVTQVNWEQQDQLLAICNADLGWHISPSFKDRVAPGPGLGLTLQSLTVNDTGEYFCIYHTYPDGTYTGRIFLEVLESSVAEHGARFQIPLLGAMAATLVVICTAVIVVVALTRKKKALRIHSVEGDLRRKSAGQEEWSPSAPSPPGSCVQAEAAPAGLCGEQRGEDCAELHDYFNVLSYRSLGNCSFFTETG

[4] = target: T1, recombinant human TIGIT extra cellular …; test: ELISA on h-TIGIT ECD; VHH samples heated at 25 to 70 °C for 60 min (thermostability); concentration not given
Experimental: (§1) FIGS. 6A and 6B depict thermostability tested for representative clones. The VHH antibody samples were heated from 25 to 70° C. for 60 min. Binding of heated samples to human TIGIT was examined using ELISA or whole cell binding. […] Y axis represents OD450 obtained from the ELISA assay. X axis represents temperature for the treatment. […] Y axis represents percentage of binding to h-TIGIT. X axis represents temperature for the treatment.

[5] = target: T3, human TIGIT stably expressed on cells …; test: flow cytometry on Jurkat cells stably expressing h-TIGIT; VHH samples heated at 25 to 70 °C for 60 min (thermostability); concentration not given
Experimental: as §1

[6] = target: T3, human TIGIT stably expressed on cells …; test: whole cell binding

inhibition of PVR binding to h-TIGIT [1]: > 90%
B1: 2B10 VHH (VHH)
VHH: QVKLEESGGGLVQTGDSLRLSCAASSRIFRRYAMGWFRQAPGKEREFVAAITWSGASTTYTDSVKGRFTISRDSAENTTYLQMTSLRPEDTAVYYCAADPWGSVIVGTAEYEYWGQGTLVTVSS
notes: VHH in bacterial supernatant

inhibition of PVR binding to h-TIGIT [1]: > 90%
B2: 1C12 VHH (VHH)
VHH: QVQLVESGGGLVQTGDSLRLSCAASSRIFSRYGMGWFRQAPGKEREFVAAISWNGASTTYTDSVKGRFTISRDSAENTTYLQINSLRPEDTAVYYCAADPWGAVKLGTAEYEYWGQGTQVTVSS
notes: VHH in bacterial supernatant

binding result [2]: binds
binding result [3]: binds
B3: anti-TIGIT x anti-PDL1 bispecific antibody HCC (VHH 2A3 fused to the C-terminal of the anti-PDL1 heavy chain) (bispecific antibody, human IgG1, lambda)
heavy: not shown
light: QSVVTQPPPVSGAPGQRVTISCTGSSSNVGAGYDVHWYQQLPGTAPKLLIYGNSQRSSGVPDRFSGSKSGTSASLAITGLQAEDEADYYCQTYDSSGSARVVFGGGTKLTVLGQPKAAPSVTLFPPSSEELQANKATLVCLISDFYPGAVTVAWKADSSPVKAGVETTTPSKQSNNKYAASSYLSLTPEQWKSHKSYSCQVTHEGSTVEKTVAPTECS
notes: also called aTIGITx aPDL1-HCC; BsAb HCC

binding result [2]: binds
binding result [3]: binds
B4: anti-TIGIT x anti-PDL1 bispecific antibody HCN (VHH 2A3 fused to the N-terminal of the anti-PDL1 heavy chain) (bispecific antibody, human IgG1, lambda)
heavy: not shown
light: QSVVTQPPPVSGAPGQRVTISCTGSSSNVGAGYDVHWYQQLPGTAPKLLIYGNSQRSSGVPDRFSGSKSGTSASLAITGLQAEDEADYYCQTYDSSGSARVVFGGGTKLTVLGQPKAAPSVTLFPPSSEELQANKATLVCLISDFYPGAVTVAWKADSSPVKAGVETTTPSKQSNNKYAASSYLSLTPEQWKSHKSYSCQVTHEGSTVEKTVAPTECS
notes: also called aTIGITx aPDL1-HCN; BsAb HCN

inhibition of PVR binding to h-TIGIT [1]: > 90%
B5: 13H11 VHH (VHH)
VHH: QVQLVESGGGLVQAGGSLRLSCAASGLTFSMYAMGWFRQGPGKERESVAAISSDGRFTYYAASVKGRFTISKDNAKSAAFLQMNSLKPEDTAVYYCAARDSGSGYYSRAQWYDYWGQGTQVTVSS
notes: VHH in bacterial supernatant

inhibition of PVR binding to h-TIGIT [1]: > 90%
B6: 1G1 VHH (VHH)
VHH: QVQLVESGGGLVQAGDSLRLSCVASGPSFSSYPMGWFRQGPGKERESVAAISSDGRFTYYAASVKGRFTISKDNAKSAAFLQMNSLKPEDTAVYYCAARDSGSGYYSRAQWYDYWGQGTLVTVSS
notes: VHH in bacterial supernatant

inhibition of PVR binding to h-TIGIT [1]: > 90%
B7: 2B7 VHH (VHH)
VHH: QVQLVESGGGLVQAGGSLRLACAASGRTFSSYPMGWFRQGPGKERESVAAISSDGRFTYYAASVKGRFTISKDNAKSAAFLQMNSLKPEDTAVYYCAARDSGSGYYSRAQWYDYWGQGTQVTVSS
notes: VHH in bacterial supernatant

binding result [2]: binds
binding result [3]: binds
B8: anti-TIGIT x anti-PDL1 bispecific antibody LCN (VHH 2A3 fused to the N-terminal of the anti-PDL1 light chain) (bispecific antibody, human IgG1, lambda)
heavy: not shown
light: QVQLVESGGGVVQPGRSLRLSCAASGGSFSSYPMGWFRQAPGKERESVAAISSDMRFTYYADSVKGRFTISRDNSKNTLYLQMNSLRAEDTAVYYCAARDSGVGYYSRAQWYDYWGQGTLVTVSSGSGGSGGSGGSGQSVVTQPPPVSGAPGQRVTISCTGSSSNVGAGYDVHWYQQLPGTAPKLLIYGNSQRSSGVPDRFSGSKSGTSASLAITGLQAEDEADYYCQTYDSSGSARVVFGGGTKLTVLGQPKAAPSVTLFPPSSEELQANKATLVCLISDFYPGAVTVAWKADSSPVKAGVETTTPSKQSNNKYAASSYLSLTPEQWKSHKSYSCQVTHEGSTVEKTVAPTECS
notes: also called aTIGITx aPDL1-LCN

binding result [2]: binds
binding result [3]: binds
B9: anti-TIGIT x anti-PDL1 bispecific antibody LCC (VHH 2A3 fused to the C-terminal of the anti-PDL1 light chain) (bispecific antibody, human IgG1, lambda)
heavy: not shown
light: QSVVTQPPPVSGAPGQRVTISCTGSSSNVGAGYDVHWYQQLPGTAPKLLIYGNSQRSSGVPDRFSGSKSGTSASLAITGLQAEDEADYYCQTYDSSGSARVVFGGGTKLTVLGQPKAAPSVTLFPPSSEELQANKATLVCLISDFYPGAVTVAWKADSSPVKAGVETTTPSKQSNNKYAASSYLSLTPEQWKSHKSYSCQVTHEGSTVEKTVAPTECSGSGGSGGSGGSGQVQLVESGGGVVQPGRSLRLSCAASGGSFSSYPMGWFRQAPGKERESVAAISSDMRFTYYADSVKGRFTISRDNSKNTLYLQMNSLRAEDTAVYYCAARDSGVGYYSRAQWYDYWGQGTLVTVSS
notes: likely a printing error; also called aTIGITx aPDL1-LCC

binding result [4]: binds
binding result [5]: binds
B10: 1A8 VHH (VHH)
VHH: QVQLVESGGGVVQPGRSLRLSCAASGPSFSSYPMGWFRQAPGKERESVAAISSRGRFTYYADSVKGRFTISRDNSKNTLYLQMNSLRAEDTAVYYCAARDSGSGYYSRAQWYDYWGQGTLVTVSS
notes: VHH in bacterial supernatant

binding result [6]: binds
B11: 2A3 MI (2A3 with methionine to isoleucine in CDR2) (VHH)
VHH: QVQLVESGGGVVQPGRSLRLSCAASGGSFSSYPMGWFRQAPGKERESVAAISSDIRFTYYADSVKGRFTISRDNSKNTLYLQMNSLRAEDTAVYYCAARDSGVGYYSRAQWYDYWGQGTLVTVSS

binding result [4]: binds
binding result [5]: binds
B12: 7F6 VHH (VHH)
VHH: QVQLVESGGGVVQPGRSLRLSCAASGPMFSSYPMGWFRQAPGKERESVAAISSDPRFTYYADSVKGRFTISRDNSKNTLYLQMNSLRAEDTAVYYCAARDSGSGYYSRAQWYDYWGQGTLVTVSS
notes: VHH in bacterial supernatant

binding result [4]: binds
binding result [5]: binds
B13: 6F12 VHH (VHH)
VHH: QVQLVESGGGVVQPGRSLRLSCAASGPSFTSYPMGWFRQAPGKERESVAAISSDGRFKYYADSVKGRFTISRDNSKNTLYLQMNSLRAEDTAVYYCAAEDSGSGYYSRAQWYDYWGQGTLVTVSS
notes: VHH in bacterial supernatant

binding result [6]: binds
B14: 2A3 ML_DE (2A3 with M to L in CDR2 and D to E in CDR3) (VHH)
VHH: QVQLVESGGGVVQPGRSLRLSCAASGGSFSSYPMGWFRQAPGKERESVAAISSDLRFTYYADSVKGRFTISRDNSKNTLYLQMNSLRAEDTAVYYCAARESGVGYYSRAQWYDYWGQGTLVTVSS

binding result [6]: binds
B15: 2A3 ML (2A3 with methionine to leucine in CDR2) (VHH)
VHH: QVQLVESGGGVVQPGRSLRLSCAASGGSFSSYPMGWFRQAPGKERESVAAISSDLRFTYYADSVKGRFTISRDNSKNTLYLQMNSLRAEDTAVYYCAARDSGVGYYSRAQWYDYWGQGTLVTVSS

inhibition of PVR binding to h-TIGIT [1]: > 90%
B16: 3F10 VHH (VHH)
VHH: QVQLVESGGGLVQAGGSLRLSCASSEHTFSNFPMGWFRQAPGKERNVVAAIDSSGRLTYYADSVKGRFTISKDNAKSTVYLQMNSLKSEDTARYYCAARTGGVGYYSRSSFYNYWGQGTLVTVSS
notes: VHH in bacterial supernatant

inhibition of PVR binding to h-TIGIT [1]: > 90%
B17: 3G6 VHH (VHH)
VHH: QVQLVESGGGLVQAGGSLSLSCAASGSIFGISVMGWYRQAPGEQRDLVATLTRAGLTTYGDSVKGRFSISRDSAKNTVYLQMNNLKPEDTAVYYCHANIMESAASTFGRYWGQGTQVTVSS
notes: VHH in bacterial supernatant

inhibition of PVR binding to h-TIGIT [1]: > 90%
B18: 15A5 VHH (VHH)
VHH: QVQLVESGGGLVQAGGSLRLSCAASERTFSSFAMGWFRQAPGKEREVVAAIDPSGRYIYYKDSVKGRFTMSRDNAKSTVYLQMNSLKPDDTARYYCAARIRGEGYYTRSSFYHYWGQGTQVTVSS
notes: VHH in bacterial supernatant

From US20230037911A1 (SHANGHAI HENLIUS BIOTECH, published 2023)
